T1: PUF4 RNA-binding domain (Saccharomyces cerevisiae, UniProt P25339 537-888)
T1 sequence: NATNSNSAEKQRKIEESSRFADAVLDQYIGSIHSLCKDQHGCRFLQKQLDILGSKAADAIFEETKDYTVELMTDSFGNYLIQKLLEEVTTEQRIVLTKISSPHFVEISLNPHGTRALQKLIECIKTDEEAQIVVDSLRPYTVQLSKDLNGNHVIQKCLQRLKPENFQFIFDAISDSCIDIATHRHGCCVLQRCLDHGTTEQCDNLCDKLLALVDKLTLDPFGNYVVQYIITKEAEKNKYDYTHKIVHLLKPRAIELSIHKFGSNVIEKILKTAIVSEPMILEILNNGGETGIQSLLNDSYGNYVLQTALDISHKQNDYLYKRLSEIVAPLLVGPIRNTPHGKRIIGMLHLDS


Molecular target: T1, PUF4 RNA-binding domain
Assay: Mg; RNA-MaP; 20 mM Na-HEPES pH 7.4, 30 mM KOAc, 0.75 mM MgCl2, 0.1% Tween-20, 5% glycerol, 0.1 mg/mL BSA, 2 mM DTT; 25 C; 0.0125-409.6 nM protein
Details: tags: N-His6-TEV cleaved; C-SNAP kept, Cy3B-labelled; label: tethered on chip by stalled RNA polymerase

Row | Binder | Kd [nM]
1 | UCUCUUUGUAUUCUUGUCUCUU (ssRNA) [Ib_S1_P5E.1_K5.1_C5.1_H5.1_A5.1_[A7C]_F5.1_[A10G]_T5.1] | 20.4
2 | ACAAACAAUAUAUAUUAGCACAAAC (ssRNA) [Id_ii_S3_P4E.3_K4.2_C4.2_[C-2A]_[T-1A]_H4.2_A4.1_F4.1_T4.2_[T11C]] | 11.9
3 | ACAAACAUUAUAUAUUACGACAAAC (ssRNA) [Id_ii_S3_P4E.3_K4.2_C4.2_[C-2A]_H4.2_A4.1_F4.1_T4.2_[G10C]_[T11G]] | 21.4
4 | ACAAACAUUAUAUAUUACAACAAAC (ssRNA) [Id_ii_S3_P4E.3_K4.2_C4.2_[C-2A]_H4.2_A4.1_F4.1_T4.2_[G10C]_[T11A]] | 27.7
5 | ACAAACAUUAUAUAUUACUACAAAC (ssRNA) [Id_ii_S3_P4E.3_K4.2_C4.2_[C-2A]_H4.2_A4.1_F4.1_T4.2_[G10C]] | 21.1
6 | ACAAACAUUAUAUAUUAUCACAAAC (ssRNA) [Id_ii_S3_P4E.3_K4.2_C4.2_[C-2A]_H4.2_A4.1_F4.1_T4.2_[G10T]_[T11C]] | 19.4
7 | ACAAACAUUAUAUAUUAGAACAAAC (ssRNA) [Id_ii_S3_P4E.3_K4.2_C4.2_[C-2A]_H4.2_A4.1_F4.1_T4.2_[T11A]] | 12.8
8 | ACAAACCCUAUAUAUUACGACAAAC (ssRNA) [Id_ii_S3_P4E.3_K4.2_C4.2_[T-1C]_H4.2_A4.1_F4.1_T4.2_[G10C]_[T11G]] | 16.6
9 | ACAAACCCUAUAUAUUACUACAAAC (ssRNA) [Id_ii_S3_P4E.3_K4.2_C4.2_[T-1C]_H4.2_A4.1_F4.1_T4.2_[G10C]] | 18.4
10 | ACAAACCCUAUAUAUUAUUACAAAC (ssRNA) [Id_ii_S3_P4E.3_K4.2_C4.2_[T-1C]_H4.2_A4.1_F4.1_T4.2_[G10T]] | 13.3
11 | ACAAACCCUAUAUAUUAACACAAAC (ssRNA) [Id_ii_S3_P4E.3_K4.2_C4.2_[T-1C]_H4.2_A4.1_F4.1_T4.2_[G10A]_[T11C]] | 25.9
12 | UCUCUUUGUAUUUUUGUCUCUU (ssRNA) [Ib_S1_P5E.1_K5.1_C5.1_H5.1_A5.1_[A7T]_F5.1_[A10G]_T5.1] | 13.7
13 | ACAAACCCUAUAUAUUAAUACAAAC (ssRNA) [Id_ii_S3_P4E.3_K4.2_C4.2_[T-1C]_H4.2_A4.1_F4.1_T4.2_[G10A]] | 14
14 | ACAAACCAUAUAUAUUACCACAAAC (ssRNA) [Id_ii_S3_P4E.3_K4.2_C4.2_[T-1A]_H4.2_A4.1_F4.1_T4.2_[G10C]_[T11C]] | 32.1
15 | ACAAACCUUAUAUAUUACUACAAAC (ssRNA) [Id_ii_S3_P4E.3_K4.2_C4.2_H4.2_A4.1_F4.1_T4.2_[G10C]] | 13.3
16 | ACAAACCUUAUAUAUUAACACAAAC (ssRNA) [Id_ii_S3_P4E.3_K4.2_C4.2_H4.2_A4.1_F4.1_T4.2_[G10A]_[T11C]] | 21.6

Row | Binder | Kd [nM]
17 | ACAAACCUUAUAUAUUAAUACAAAC (ssRNA) [Id_ii_S3_P4E.3_K4.2_C4.2_H4.2_A4.1_F4.1_T4.2_[G10A]] | 14
18 | ACAAACCUUAUAUAUUAGUACAAAC (ssRNA) [If_S3_P4E.3_K4.2_C4.2_H4.2_A4.1_F4.1_T4.2] | 3.71
19 | ACAAACGCACACUAUUACUACAAAC (ssRNA) [Id_ii_S3_P4E.4_K4.3_C4.2_[C-2G]_[T-1C]_H4.3_A4.1_F4.1_T4.2_[G10C]] | > 2300
20 | ACAAACGCACACUAUUAGAACAAAC (ssRNA) [Id_ii_S3_P4E.4_K4.3_C4.2_[C-2G]_[T-1C]_H4.3_A4.1_F4.1_T4.2_[T11A]] | > 2300
21 | ACAAACGUACACUAUUAUCACAAAC (ssRNA) [Id_ii_S3_P4E.4_K4.3_C4.2_[C-2G]_H4.3_A4.1_F4.1_T4.2_[G10T]_[T11C]] | 39.9
22 | ACAAACGUACACUAUUAACACAAAC (ssRNA) [Id_ii_S3_P4E.4_K4.3_C4.2_[C-2G]_H4.3_A4.1_F4.1_T4.2_[G10A]_[T11C]] | 39.8
23 | UCUCUUUGUAUUGUUCUCUCUU (ssRNA) [Ib_S1_P5E.1_K5.1_C5.1_H5.1_A5.1_[A7G]_F5.1_[A10C]_T5.1] | 45.8
24 | ACAAACGUACACUAUUAGCACAAAC (ssRNA) [Id_ii_S3_P4E.4_K4.3_C4.2_[C-2G]_H4.3_A4.1_F4.1_T4.2_[T11C]] | 70.4
25 | ACAAACUGACACUAUUACGACAAAC (ssRNA) [Id_ii_S3_P4E.4_K4.3_C4.2_[C-2T]_[T-1G]_H4.3_A4.1_F4.1_T4.2_[G10C]_[T11G]] | > 2300
26 | ACAAACUGACACUAUUAUGACAAAC (ssRNA) [Id_ii_S3_P4E.4_K4.3_C4.2_[C-2T]_[T-1G]_H4.3_A4.1_F4.1_T4.2_[G10T]_[T11G]] | > 2300
27 | ACAAACUGACACUAUUAUCACAAAC (ssRNA) [Id_ii_S3_P4E.4_K4.3_C4.2_[C-2T]_[T-1G]_H4.3_A4.1_F4.1_T4.2_[G10T]_[T11C]] | > 2300
28 | ACAAACUGACACUAUUAACACAAAC (ssRNA) [Id_ii_S3_P4E.4_K4.3_C4.2_[C-2T]_[T-1G]_H4.3_A4.1_F4.1_T4.2_[G10A]_[T11C]] | > 2300
29 | ACAAACUCACACUAUUAUUACAAAC (ssRNA) [Id_ii_S3_P4E.4_K4.3_C4.2_[C-2T]_[T-1C]_H4.3_A4.1_F4.1_T4.2_[G10T]] | > 2300
30 | ACAAACUCACACUAUUAAGACAAAC (ssRNA) [Id_ii_S3_P4E.4_K4.3_C4.2_[C-2T]_[T-1C]_H4.3_A4.1_F4.1_T4.2_[G10A]_[T11G]] | > 2300
31 | ACAAACUCACACUAUUAACACAAAC (ssRNA) [Id_ii_S3_P4E.4_K4.3_C4.2_[C-2T]_[T-1C]_H4.3_A4.1_F4.1_T4.2_[G10A]_[T11C]] | > 2300

From publication PMC9352680, “A comprehensive thermodynamic model for RNA binding by the Saccharomyces cerevisiae Pumilio protein PUF4”
